This note sets out measurements from paper PMC10786891, “Massively parallel profiling of RNA-targeting CRISPR-Cas13d”.

Residue numbers refer to the chain shown, from its start. Names and notes keep the numbering of the source.

The labels stand for the following.
B1: target 1 U10G,A16C (mixed)
RNA 1: CACCCGUGCAAAAAUGCAGGGGUCUAAAACUGAGCGGAUAACCUCUCUAUGG
RNA 2: GGGAAUGGAUCCACAUCUACGAAUUCGUACCAUAGCGAGGUGAUCCGCUCACCGAGAUCGGAAGAGCACACGU
B2: target 1 insG 3' of 9,insA 3' of 4 (mixed)
RNA 1: B1 RNA 1
RNA 2: GGGAAUGGAUCCACAUCUACGAAUUCGUACCAUAGAGAGGUUAGUCCGCAUCACCGAGAUCGGAAGAGCACACGU
B3: target 1 insU 3' of 21,insG 3' of 1 (mixed)
RNA 1: B1 RNA 1
RNA 2: GGGAAUGGAUCCACAUCUACGAAUUCGUACCUAUAGAGAGGUUAUCCGCUCAGCCGAGAUCGGAAGAGCACACGU
B4: target 3 G4A (mixed)
RNA 1: CACCCGUGCAAAAUUGCAGGGGUCUAAAACGACCUGAAUAUUUCAGAUCAAA
RNA 2: GGGAAUGGAUCCACAUCUACGAAUUCGUUUUUGAUCUGAAAUAUUCAAGUCUGCAGAUCGGAAGAGCACACGU
B5: target 3 insA 3' of 4,insA 3' of 3 (mixed)
RNA 1: B4 RNA 1
RNA 2: GGGAAUGGAUCCACAUCUACGAAUUCGUUUUUGAUCUGAAAUAUUCAGAGAUCUGCAGAUCGGAAGAGCACACGU
B6: target 3 insA 3' of 21,insA 3' of 3 (mixed)
RNA 1: B4 RNA 1
RNA 2: GGGAAUGGAUCCACAUCUACGAAUUCGUUUUAUGAUCUGAAAUAUUCAGGAUCUGCAGAUCGGAAGAGCACACGU
B7: target 3 A5G,U21A (mixed)
RNA 1: B4 RNA 1
RNA 2: B4 RNA 2 with U31A, A47G, A48G
B8: target 3 insU 3' of 22,insG 3' of 5 (mixed)
RNA 1: B4 RNA 1
RNA 2: B6 RNA 2 with A32U, A51G
B9: target 3 insC 3' of 11,insC 3' of 2 (mixed)
RNA 1: B4 RNA 1
RNA 2: B5 RNA 2 with U42C, A43U, U44A, C46U, A47C, G48A, A49G, A51U, U52C
B10: target 3 del4,del22 (mixed)
RNA 1: B4 RNA 1
RNA 2: GGGAAUGGAUCCACAUCUACGAAUUCGUUUUGAUCUGAAAUAUUCAGUCUGCAGAUCGGAAGAGCACACGU
B11: target 3 insA 3' of 15,insC 3' of 2 (mixed)
RNA 1: B4 RNA 1
RNA 2: B6 RNA 2 with A32U, U33G, G34A, A35U, U36C, C37U, U38A, A51U, U52C
B12: target 3 C6U,U22C (mixed)
RNA 1: B4 RNA 1
RNA 2: B4 RNA 2 with U30C, C46U, A48G
B13: target 3 insA 3' of 7,insU 3' of 6 (mixed)
RNA 1: B4 RNA 1
RNA 2: B5 RNA 2 with C46A, A47C, G48U, A51G
B14: target 3 insC 3' of 22,insC 3' of 4 (mixed)
RNA 1: B4 RNA 1
RNA 2: B6 RNA 2 with U31C, A32U, G50C, A51G
B15: target 3 U2A,U21C (mixed)
RNA 1: B4 RNA 1
RNA 2: B4 RNA 2 with U31C, A48G, U50A
B16: target 3 A5U,U22A (mixed)
RNA 1: B4 RNA 1
RNA 2: B4 RNA 2 with U30A, A47U, A48G
B17: target 3 insC 3' of 9,insU 3' of 6 (mixed)
RNA 1: B4 RNA 1
RNA 2: B5 RNA 2 with U44C, C46U, A47C, G48U, A51G
B18: target 3 U2G,C6G (mixed)
RNA 1: B4 RNA 1
RNA 2: B4 RNA 2 with C46G, A48G, U50G
B19: target 3 insC 3' of 8,insU 3' of 3 (mixed)
RNA 1: B4 RNA 1
RNA 2: B5 RNA 2 with U45C, C46U, A47C, G48A, A49G, A51U
B20: target 3 insA 3' of 2,insA 3' of 2 (mixed)
RNA 1: B4 RNA 1
RNA 2: B5 RNA 2 with A49G, G50U, U52A
B21: target 3 C1G,U2C (mixed)
RNA 1: B4 RNA 1
RNA 2: B4 RNA 2 with A48G, U50C, C51G
B22: target 3 G3C,U22A (mixed)
RNA 1: B4 RNA 1
RNA 2: B4 RNA 2 with U30A, A48G, G49C
B23: target 3 A5G,U8C (mixed)
RNA 1: B4 RNA 1
RNA 2: B4 RNA 2 with U44C, A47G, A48G
B24: target 3 insU 3' of 11,insU 3' of 4 (mixed)
RNA 1: B4 RNA 1
RNA 2: B5 RNA 2 with A43U, U44A, C46U, A47C, G48A, A49G, G50U, A51G
B25: target 3 insG 3' of 7,insG 3' of 6 (mixed)
RNA 1: B4 RNA 1
RNA 2: B5 RNA 2 with C46G, A47C, A51G
B26: target 3 insU 3' of 5,insC 3' of 4 (mixed)
RNA 1: B4 RNA 1
RNA 2: B5 RNA 2 with G48U, A49G, G50C, A51G
B27: target 3 insC 3' of 9,insU 3' of 4 (mixed)
RNA 1: B4 RNA 1
RNA 2: B5 RNA 2 with U44C, C46U, A47C, G48A, A49G, G50U, A51G
B28: target 3 insC 3' of 11,insG 3' of 5 (mixed)
RNA 1: B4 RNA 1
RNA 2: B5 RNA 2 with U42C, A43U, U44A, C46U, A47C, G48A, A49G, A51G
B29: target 3 U2A,A12C (mixed)
RNA 1: B4 RNA 1
RNA 2: B4 RNA 2 with A40C, A48G, U50A
B30: target 3 del5,del6 (mixed)
RNA 1: B4 RNA 1
RNA 2: GGGAAUGGAUCCACAUCUACGAAUUCGUUUUUGAUCUGAAAUAUUGGUCUGCAGAUCGGAAGAGCACACGU
B31: target 3 G3U,U22A (mixed)
RNA 1: B4 RNA 1
RNA 2: B4 RNA 2 with U30A, A48G, G49U

This series deals with T1, EsCas13d, nuclease-dead (Eubacterium siraeum, UniProt B0MS50, R295A;H300A;R849A;H854A).
T1 sequence: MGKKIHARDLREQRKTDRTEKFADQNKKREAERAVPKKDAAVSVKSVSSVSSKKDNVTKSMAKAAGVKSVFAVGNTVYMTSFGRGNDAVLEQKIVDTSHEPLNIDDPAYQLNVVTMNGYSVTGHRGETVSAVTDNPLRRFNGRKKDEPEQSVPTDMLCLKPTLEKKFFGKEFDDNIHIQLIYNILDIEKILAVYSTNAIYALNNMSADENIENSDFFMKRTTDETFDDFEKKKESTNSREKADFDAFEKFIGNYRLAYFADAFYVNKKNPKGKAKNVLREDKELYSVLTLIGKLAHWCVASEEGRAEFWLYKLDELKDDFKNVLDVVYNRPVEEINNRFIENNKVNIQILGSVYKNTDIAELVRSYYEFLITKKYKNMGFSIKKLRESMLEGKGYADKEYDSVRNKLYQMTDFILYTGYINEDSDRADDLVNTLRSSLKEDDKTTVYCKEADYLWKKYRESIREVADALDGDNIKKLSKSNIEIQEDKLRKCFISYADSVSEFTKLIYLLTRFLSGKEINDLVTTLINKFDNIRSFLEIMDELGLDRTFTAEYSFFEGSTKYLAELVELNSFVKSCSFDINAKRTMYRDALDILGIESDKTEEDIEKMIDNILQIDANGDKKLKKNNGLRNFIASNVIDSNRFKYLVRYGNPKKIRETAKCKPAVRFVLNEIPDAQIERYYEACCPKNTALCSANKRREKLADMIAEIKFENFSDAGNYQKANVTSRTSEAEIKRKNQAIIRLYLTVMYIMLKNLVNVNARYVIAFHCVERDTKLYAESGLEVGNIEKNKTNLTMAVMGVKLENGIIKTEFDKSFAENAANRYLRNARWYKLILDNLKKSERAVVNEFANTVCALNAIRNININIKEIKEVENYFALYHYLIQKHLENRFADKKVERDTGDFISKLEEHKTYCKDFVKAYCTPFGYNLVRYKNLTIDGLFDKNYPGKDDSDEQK
Nature of the series: crRNA (strand 1, pre-loaded); Mg2+; 40 mM Tris-HCl pH 7.5, 150 mM NaCl, 6 mM MgCl2, 1 mM DTT, 0.1% Tween-20, 0.2 mg/ml BSA; 25 C; 10 min per concentration, then washed. To be noted: tags: His6-TwinStrep-SUMO cleaved; N-terminal SNAP kept (SNAP-Surface 488); label: 3' end held by stalled T7 RNA polymerase.
Broadly, the Kd is the free concentration of one partner at which half of the binding sites on the other are occupied at equilibrium, for simple one-to-one binding. Consider B1, for which the Kd turned out to be 57 ± 10 nM.

The molecule B2 had a Kd of 9.6 ± 1 nM. In the case of B3 it was 24.9 ± 2.3 nM; in that of B4, 4.89 ± 0.35 nM; in that of B5, 50 ± 7.5 nM.

Consider B6, for which the Kd was around 69 nM.

B7 showed a Kd of 98 ± 44.5 nM.

The molecule B8 returned a Kd of 17.4 ± 1.7 nM. With B9 the figure was 67 ± 10 nM; with B10, 16.6 ± 2.3 nM. B11 came in with a Kd of around 82 nM. With B12 the figure was 14.5 ± 1.85 nM; with B13, 17.9 ± 1.2 nM; with B14, 39 ± 12 nM. In the case of B15 it was 39.5 ± 11 nM. With B16 the figure was 48 ± 10 nM; with B17, 82 ± 14.5 nM; with B18, 21.8 ± 2.7 nM. On to B19, for which the Kd worked out at 59 ± 25.5 nM. Molecule B20 displayed a Kd of 30.4 ± 3.8 nM.

For B21, binding was characterised by a dissociation constant (Kd) of 17.1 ± 3.8 nM.

The molecule B22 showed a Kd of 16.5 ± 1.4 nM. In the case of B23 it was 86.5 ± 13 nM.

Molecule B24 gave a Kd of 23.6 ± 4.15 nM. In the case of B25 it was 24.9 ± 1.9 nM; in that of B26, 6.45 ± 0.65 nM; in that of B27, 41.5 ± 6 nM.

With B28, binding was characterised by a dissociation constant (Kd) of 86.5 ± 29 nM. With B29, the affinity, expressed as Kd, was 33 ± 5.5 nM.

In turn, B30 displayed a Kd of 72 ± 9 nM. In the case of B31 it was 20.6 ± 2.75 nM.
